Self-cleavage data for 38 variants are collected here from the RNAGym collection of RNA variant scans (doi:10.7554/elife.80360).

B1: Hairpin Ribozyme (parent)
chain: GUCCUCUUUCACGUGCGCGUGAAAGAGAGAAGUGAACCAGAGAAACACACGUUGUGGUAUAUUACCUGGUA

The variants in this data set derive from B1. As to the kind of experiment: self-cleavage, relative activity (ratio to wild type); higher = more cleavage; co-transcriptional.
For GUCCUCUUUCACGUGCGCGUGAAAGACAGAAGUGAACUAGAGAAACACACGUUGUGGUAUAUUACCUGGUA, the self-cleavage is 0.131.
Regarding GUCCUCUUUCACGUGCGCGUGAAAGACAGAAGUGAACGAGAGAAACACACGUUGUGGUAUAUUACCUGGUA, the self-cleavage came to 0.0571.
For the variant GUCCUCUUUCACGUGCGCGUGAAAGACAGAAGUGAACCAGAGAAACACACGUUGAGGUAUAUUACCUGGUA, the self-cleavage came to 0.156.
For the variant GUCCUCUUUCACGUGCGCGUGAAAGACAGAAGUGAACCAGAGAAACACACGUUGGGGUAUAUUACCUGGUA, the self-cleavage is 0.113.
Consider GUCCUCUUUCACGUGCGCGUGAAAGAUAGAAGUGUACCAGAGAAACACACGUUGUGGUAUAUUACCUGGUA, for which the self-cleavage is 0.203.
With GUCCUCUUUCACGUGCGCGUGAAAGAUAGAAGUGCACCAGAGAAACACACGUUGUGGUAUAUUACCUGGUA, the self-cleavage came out at 0.44.
On to GUCCUCUUUCACGUGCGCGUGAAAGAUAGAAGUGAACCAGAGAAACACGCGUUGUGGUAUAUUACCUGGUA, for which the self-cleavage was 0.214.
As to GUCCUCUUUCACGUGCGCGUGAAAGACAGCAGUGAACCAGAGAAACACACGUUGUGGUAUAUUACCUGGUA, the self-cleavage turned out to be 0.0463.
As for GUCCUCUUUCACGUGCGCGUGAAAGAUAGAAGUGAACCAGAGAAACUCACGUUGUGGUAUAUUACCUGGUA, the self-cleavage stood at 0.192.
The figure for GUCCUCUUUCACGUGCGCGUGAAAGACAGAAGUGAACCAGAGAAACACACGUUGUGCUAUAUUACCUGGUA is 0.0926; for GUCCUCUUUCACGUGCGCGUGAAAGACAGAAGUGAACCAGAGAAACACACGUUGUGAUAUAUUACCUGGUA it is 0.15.
GUCCUCUUUCACGUGCGCGUGAAAGACAGAAGUGAACCAGAGAAACACACGUUGUGUUAUAUUACCUGGUA: the self-cleavage came to 0.174.
As for GUCCUCUUUCACGUGCGCGUGAAAGACAGAAGUGAACCAGAGAAACACACGUUGUGGUAUAUUAACUGGUA, the self-cleavage came out at 0.146.
As to GUCCUCUUUCACGUGCGCGUGAAAGAUAGACGUGAACCAGAGAAACACACGUUGUGGUAUAUUACCUGGUA, the self-cleavage came out at 0.205.
For GUCCUCUUUCACGUGCGCGUGAAAGAUAGAUGUGAACCAGAGAAACACACGUUGUGGUAUAUUACCUGGUA, the self-cleavage turned out to be 0.119.
On to GUCCUCUUUCACGUGCGCGUGAAAGAUAGAAGUGAACCGGAGAAACACACGUUGUGGUAUAUUACCUGGUA, for which the self-cleavage was 0.149.
Consider GUCCUCUUUCACGUGCGCGUGAAAGACAGAAGCGAACCAGAGAAACACACGUUGUGGUAUAUUACCUGGUA, for which the self-cleavage came to 0.117.
In the case of GUCCUCUUUCACGUGCGCGUGAAAGACAGAAGAGAACCAGAGAAACACACGUUGUGGUAUAUUACCUGGUA, the self-cleavage is 0.0754.
As for GUCCUCUUUCACGUGCGCGUGAAAGACAGAAGGGAACCAGAGAAACACACGUUGUGGUAUAUUACCUGGUA, the figure is 0.0854; as for GUCCUCUUUCACGUGCGCGUGAAAGAUAGAAGUGACCCAGAGAAACACACGUUGUGGUAUAUUACCUGGUA, 0.0992.
Consider GUCCUCUUUCACGUGCGCGUGAAAGAUAGAAGUGAGCCAGAGAAACACACGUUGUGGUAUAUUACCUGGUA, for which the self-cleavage turned out to be 0.393.
The figure for GUCCUCUUUCACGUGCGCGUGAAAGAUAGAAGUGAUCCAGAGAAACACACGUUGUGGUAUAUUACCUGGUA is 0.0647; for GUCCUCUUUCACGUGCGCGUGAAAGACAGAAGUGAACCAAAGAAACACACGUUGUGGUAUAUUACCUGGUA it is 0.0679.
Regarding GUCCUCUUUCACGUGCGCGUGAAAGACAGAAGUGAACCACAGAAACACACGUUGUGGUAUAUUACCUGGUA, the self-cleavage was found to be 0.107.
In the case of GUCCUCUUUCACGUGCGCGUGAAAGACAGAAGUGAACCAGAGAAACACUCGUUGUGGUAUAUUACCUGGUA, the self-cleavage was found to be 0.129.
As to GUCCUCUUUCACGUGCGCGUGAAAGACAGAAGUGAACCAGAGAAACACACGUUGUGGUAUAUUACCUGCUA, the self-cleavage was found to be 0.1.
As for GUCCUCUUUCACGUGCGCGUGAAAGACAUAAGUGAACCAGAGAAACACACGUUGUGGUAUAUUACCUGGUA, the self-cleavage was determined as 0.179.
As for GUCCUCUUUCACGUGCGCGUGAAAGACAAAAGUGAACCAGAGAAACACACGUUGUGGUAUAUUACCUGGUA, the figure is 0.138; as for GUCCUCUUUCACGUGCGCGUGAAAGAUAGAAGUGAACCAGAGAAACACACGUUGUGGUAUAUUACCUGGUA, 0.282.
As for GUCCUCUUUCACGUGCGCGUGAAAGACAGAAGUGAACCAGAGAAACACACGUUGUGGUAUAUUACCUGGUA, the self-cleavage worked out at 0.172.
In the case of GUCCUCUUUCACGUGCGCGUGAAAGACAGAAGUGAACCAGAGAAACACACGGUGUGGUAUAUUACCUGGUA, the self-cleavage was 0.163.
On to GUCCUCUUUCACGUGCGCGUGAAAGACAGAAGUGAACCAGAGAAACACACGAUGUGGUAUAUUACCUGGUA, for which the self-cleavage worked out at 0.167.
As for GUCCUCUUUCACGUGCGCGUGAAAGACAGAAGUGAACCAGAGAAACACACGCUGUGGUAUAUUACCUGGUA, the figure is 0.22; as for GUCCUCUUUCACGUGCGCGUGAAAGACAGAAGUGAACCAGAGGAACACACGUUGUGGUAUAUUACCUGGUA, 0.107; as for GUCCUCUUUCACGUGCGCGUGAAAGACAGAAGUGAACCAGAGCAACACACGUUGUGGUAUAUUACCUGGUA, 0.107.
For GUCCUCUUUCACGUGCGCGUGAAAGACAGAUGUGAACCAGAGAAACACACGUUGUGGUAUAUUACCUGGUA, the self-cleavage turned out to be 0.223.
In the case of GUCCUCUUUCACGUGCGCGUGAAAGACAGAAGUGAACCAGAGAAACACACGUUGUGGUACAUUACCUGGUA, the self-cleavage was found to be 0.333.
Regarding GUCCUCUUUCACGUGCGCGUGAAAGACAGAAGUGGACCAGAGAAACACACGUUGUGGUAUAUUACCUGGUA, the self-cleavage was 0.181.
